In PMC9519043:

Tests used:
[1] = biological target: SARS-CoV-2 B.1.1.7 (S protein) (SARS-CoV-2 variant B.1.1.7) (UniProt P0DTC2); test: SPR; settings: SPR (BIAcore T200, […], pH not stated
[2] = biological target: SARS-CoV-2 B.1.351 (S protein) (SARS-CoV-2 variant B.1.351) (UniProt P0DTC2); test: SPR; settings: SPR (BIAcore T200, […], pH not stated
[3] = biological target: SARS-CoV-2 B.1.1.7 (S protein) (SARS-CoV-2 variant B.1.1.7) (UniProt P0DTC2); test: microfluidic affinity capture, RT-qPCR; settings: 5' amino C12 linker and TEG spacer 9; 3' inverted dT; SPR (BIAcore T200, […], pH not stated; […]

Sequence	Kd [1] [nM]	Kd [2] [nM]	binding signal [3] [% recovery]
CAGCACCGACCTTGTGCTTTGGGAGTGCTGGTCCAAGGGCGTTAATGGACA [51-nt SARS-CoV-2 aptamer (Song et al.), SPR form]	1000	1000	–
CAGCACCGACCTTGTGCTTTGGGAGTGCTGGTCCAAGGGCGTTAATGGACA [51-nt SARS-CoV-2 aptamer, chip form]	–	–	35
